According to US20240209093A1 (I MAB BIOPHARMA, published 2024):
Read-outs that look alike come from different tables or passages of the source.

T1: His-tagged human TIGIT-ECD protein (human, UniProt Q495A1 22-141)
T1 construct: extracellular domain; also called hTIGIT-his
T1 sequence (looked up): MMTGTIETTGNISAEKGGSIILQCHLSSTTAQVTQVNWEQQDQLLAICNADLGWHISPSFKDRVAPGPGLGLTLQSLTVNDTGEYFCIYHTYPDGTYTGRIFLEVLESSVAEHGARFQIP


Tests used:
Tag1-CD47 = biological target: T2, Tag1-CD47 (UniProt Q08722 19-139); assay: HTRF CD47/SIRPα binding assay (Cisbio): blocking of Tag2-SIRPa binding to Tag1-CD47; axis numbers -3 to 3 read as log10 of nM
T2 construct: Bought kit reagent
Source text: Fluorescence data were read on a PerkinElmer Envision plate reader using laser as light source.

human PD-L1 on cells [1] = biological target: T3, human PD-L1 on cells (human, UniProt Q9NZQ7 19-290); assay: flow cytometry on RKO cells, which carry both human CD47 and human PD-L1; APC-labelled secondary antibody; signal not resolved between the two arms
T3 construct: whole, on cells; also called Raji cells overexpressing human PD-L1; Raji-PD-L1 cells
Protocol: (§1) RKO cells are human colon carcinoma cell lines that express endogenous level of human CD47 and human PD-L1 on the surface. RKO cells were incubated with serial diluted anti-CD47/PD-L1 bispecific antibodies, parental CD47 or PD-L1 monospecific antibodies at 4° C. for 30 minutes. Then cells were washed with FACS buffer three times, followed by incubation with APC-labeled secondary antibody at 4° C. for 30 minutes. Then cells were washed with FACS buffer for three times. Binding was measured by flow cytometry.

human PD-L1-his [2] = biological target: T4, human PD-L1-his (human, UniProt Q9NZQ7 19-238); assay: SPR, Biacore, full kinetics, antigen 100-1.5625 nM
T4 construct: also called hPD-L1-his; human His-PD-L1

human PD-L1 on cells [3] = biological target: T3, human PD-L1 on cells; assay: flow cytometry on Raji cells overexpressing human PD-L1, PE-anti-hu IgG
Protocol: Binding capability of the anti-PD-L1 antibody of the present application was further evaluated by using Raji cells overexpressing human PD-L1. Briefly, 50 μl Raji cells overexpressing human PD-L1 were seeded into 96 well plate at a concentration of 2*10⁵ cells/well. […] Then the cells were washed twice by FACS buffer and supplemented with 100 μl PE-anti-hu IgG, followed by incubation on ice for 1 hour. After incubation, the cells in each well were collected and resuspended with 65 μl FACS buffer for analysis by flow cytometry.

human PD-L1-his [4] = biological target: T4, human PD-L1-his; assay: ELISA, plate coated with human His-PD-L1, detection goat anti-human IgG Fc HRP
Source text: Binding properties of the humanized anti-PD-L1 antibody of the present application were first evaluated by ELISA assay.

human PD-L1-his [5] = biological target: T4, human PD-L1-his; assay: SPR, Biacore T200, antibody captured on protein A chip, hPD-L1-his 6.25-100 nM as analyte
Protocol: The binding affinity of the PD-L1/TIGIT bsAb to recombinant human his-tagged PD-L1 protein was tested by BIACORE®. […] A series of dilutions of human PD-L1 protein (6.25 nM-100 nM) were injected over captured antibody at a flow rate of 10 μL/min. The antigen was allowed to associate for 180 s and dissociate for 1200 s. All the experiments were carried out on a Biacore T200. Data analysis was carried out using Biacore T200 evaluation software.

human PD-L1 on cells [6] = biological target: T3, human PD-L1 on cells; assay: flow cytometry on RKO cells (endogenous CD47 and PD-L1), APC-labelled secondary antibody
Protocol: as §1

human PD-L1-his [7] = biological target: T4, human PD-L1-his; assay: ELISA, plate coated with human His-PD-L1, detection goat anti-human IgG Fc HRP [panel A]
Source text: (§2) Binding of the anti-PD-L1/TIGIT bsAb molecules with human PD-L1 was further analyzed by ELISA.

[8] = biological target: T1, His-tagged human TIGIT-ECD protein; assay: ELISA on His-tagged human TIGIT
[9] = biological target: T1, His-tagged human TIGIT-ECD protein; assay: SPR, Biacore T200, antibody captured on protein A chip, hTIGIT-his 0.78-12.5 nM as analyte
Source text: The antibodies were captured by Protein A chip. […] The association phase was 180 s and the dissociation phase was 1200 s.

[10] = biological target: T1, His-tagged human TIGIT-ECD protein; assay: ELISA on His-tagged human TIGIT; remark: listed apart in the source
human PD-L1 on cells [11] = biological target: T3, human PD-L1 on cells; assay: flow cytometry on Raji cells overexpressing human PD-L1, PE-anti-hu IgG [panel C]
Protocol: Furthermore, binding capability of the anti-PD-L1/TIGIT bsAbs of the present application with cells expressing PD-L1 was analyzed by using Raji-PD-L1 cells. Briefly, 50 μl Raji cells overexpressing human PD-L1 were seeded into 96 well plate with 2*10⁵ cells/well.

human PD-L1-his [12] = biological target: T4, human PD-L1-his; assay: ELISA, plate coated with human His-PD-L1, detection goat anti-human IgG Fc HRP [panel B]
Source text: as §2

T3 sequence (Q9NZQ7 19-290): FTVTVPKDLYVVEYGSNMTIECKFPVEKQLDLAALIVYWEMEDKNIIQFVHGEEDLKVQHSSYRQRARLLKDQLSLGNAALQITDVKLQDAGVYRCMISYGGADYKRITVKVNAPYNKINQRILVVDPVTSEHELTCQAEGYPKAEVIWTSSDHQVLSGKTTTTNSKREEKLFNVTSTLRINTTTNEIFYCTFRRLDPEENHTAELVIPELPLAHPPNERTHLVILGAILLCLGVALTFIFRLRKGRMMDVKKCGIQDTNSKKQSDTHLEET
T4 sequence (Q9NZQ7 19-238 limits assumed): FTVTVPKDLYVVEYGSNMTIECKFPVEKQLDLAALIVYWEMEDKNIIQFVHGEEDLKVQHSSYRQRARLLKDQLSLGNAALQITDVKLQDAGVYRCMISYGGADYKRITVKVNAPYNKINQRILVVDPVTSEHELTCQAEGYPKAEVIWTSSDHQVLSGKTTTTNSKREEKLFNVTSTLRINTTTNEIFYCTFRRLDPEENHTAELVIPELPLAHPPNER
T2 sequence (Q08722 19-139 limits assumed): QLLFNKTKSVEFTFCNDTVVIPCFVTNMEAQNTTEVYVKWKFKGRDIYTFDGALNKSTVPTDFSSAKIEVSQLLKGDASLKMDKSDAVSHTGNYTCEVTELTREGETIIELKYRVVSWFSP

| IC50 (read off the curve) (Tag1-CD47) [nM] | binding result (human PD-L1 on cells [1]) | EC50 (read off the curve) (human PD-L1 on cells [3]) [nM] | EC50 (read off the curve) (human PD-L1-his [4]) [nM] | Kd (human PD-L1-his [5]) [nM] | koff (human PD-L1-his [5]) [s⁻¹] | kon (human PD-L1-his [5]) [M⁻¹ s⁻¹] | EC50 (read off the curve) (human PD-L1-his [7]) [nM] | EC50 (read off the curve) (human PD-L1 on cells [11]) [nM] | EC50 (read off the curve) (human PD-L1-his [12]) [nM] | Binder | further results |
| --- | --- | --- | --- | --- | --- | --- | --- | --- | --- | --- | --- |
| ~1 | binds |  |  |  |  |  |  |  |  | 34C5-L-93VH6-IgG1 (bispecific antibody, Symmetric 'two to two' anti-CD47/PD-L1 bispecific) heavy: not shown light: DIQMTQSPSSLSASVGDRVTITCRASQDISDYLNWYQQKPGKAPKLLIYYISRLHSGVPSRFSGSGSGTDYTLTISSLQPEDFATYYCQQGHTLPWTFGGGTKVEIKGGGGSGGGGSGGGGSGGGGSEVQLVESGGGLVQPGGSLRLSCAASGFTFTFRHYVMGWFRQAPGKEREFVAAISWSGSGSYYADSVKGRFTISRDNSKNTVYLQMNSLRAEDTAVYYCAADMTTRMSQASREYDYWGQGTLVTVSSRTVAAPSVFIFPPSDEQLKSGTASVVCLLNNFYPREAKVQWKVDNALQSGNSQESVTEQDSKDSTYSLSSTLTLSKADYEKHKVYACEVTHQGLSSPVTKSFNRGEC |  |
|  |  | ~0.4 | ~0.02 | 3.64 | 0.000128 | 35300 | ~1 |  |  | 93-VH-6 (VHH, Humanized anti-PD-L1 single domain antibody; the assays imply a human Fc part that is not described; also called PD-L1 Ab (93-VH6); 93-VH6 sdAb) VHH: EVQLVESGGGLVQPGGSLRLSCAASGFTFTFRHYVMGWFRQAPGKEREFVAAISWSGSGSYYADSVKGRFTISRDNSKNTVYLQMNSLRAEDTAVYYCAADMTTRMSQASREYDYWGQGTLVTVSS | Kd (human PD-L1-his [2]): 2.06 nM; koff (human PD-L1-his [2]): 0.000197 s⁻¹; kon (human PD-L1-his [2]): 95900 M⁻¹ s⁻¹; EC50 (read off the curve) (human PD-L1 on cells [6]): ~0.3 nM |
|  |  |  |  | 3.97 | 0.000143 | 35900 | ~1 |  |  | TIGIT-CL-93-VH6 (bispecific antibody, human IgG1, kappa, Two 93-VH6 fused to the C-termini of the anti-TIGIT light chains; also called TIGIT-CL-PD-L1 format) heavy: not shown light: DIVMTQSPSSLSASVGDRVTITCKASQDVDTAVAWYQQKPGKAPKLLIYWASARHTGVPSRFSGSGSGTDFTFTISSLQPEDIATYYCQQYSNYPLTFGQGTKLEIKRTVAAPSVFIFPPSDEQLKSGTASVVCLLNNFYPREAKVQWKVDNALQSGNSQESVTEQDSKDSTYSLSSTLTLSKADYEKHKVYACEVTHQGLSSPVTKSFNRGECGGGGSGGGGSGGGGSGGGGSEVQLVESGGGLVQPGGSLRLSCAASGFTFTFRHYVMGWFRQAPGKEREFVAAISWSGSGSYYADSVKGRFTISRDNSKNTVYLQMNSLRAEDTAVYYCAADMTTRMSQASREYDYWGQGTLVTVSS | EC50 (read off the curve) [8]: ~0.5 nM; Kd [9]: 0.103 nM; koff [9]: 0.000176 s⁻¹; kon [9]: 1.72e+06 M⁻¹ s⁻¹ |
|  |  |  |  |  |  |  |  | ~0.4 | ~0.02 | TIGIT-Fc-112-VH47 (bispecific antibody, human IgG1, kappa) heavy: not shown light: DIVMTQSPSSLSASVGDRVTITCKASQDVDTAVAWYQQKPGKAPKLLIYWASARHTGVPSRFSGSGSGTDFTFTISSLQPEDIATYYCQQYSNYPLTFGQGTKLEIKRTVAAPSVFIFPPSDEQLKSGTASVVCLLNNFYPREAKVQWKVDNALQSGNSQESVTEQDSKDSTYSLSSTLTLSKADYEKHKVYACEVTHQGLSSPVTKSFNRGEC | EC50 (read off the curve) [10]: ~0.01 nM |
| ~1 | binds |  |  |  |  |  |  |  |  | 13H3-L-93VH6-IgG1 (bispecific antibody, Symmetric 'two to two' anti-CD47/PD-L1 bispecific) heavy: not shown light: DIVMTQSPDSLAVSLGERATINCKSSQSVLYAGNNRNYLAWYQQKPGQPPKLLINQASTRASGVPDRFSGSGSGTEFTLIISSLQAEDVAIYYCQQYYTPPLAFGGGTKLEIKGGGGSGGGGSGGGGSGGGGSEVQLVESGGGLVQPGGSLRLSCAASGFTFTFRHYVMGWFRQAPGKEREFVAAISWSGSGSYYADSVKGRFTISRDNSKNTVYLQMNSLRAEDTAVYYCAADMTTRMSQASREYDYWGQGTLVTVSSRTVAAPSVFIFPPSDEQLKSGTASVVCLLNNFYPREAKVQWKVDNALQSGNSQESVTEQDSKDSTYSLSSTLTLSKADYEKHKVYACEVTHQGLSSPVTKSFNRGEC |  |
|  |  | ~0.3 | ~0.009 |  |  |  |  | ~0.3 | ~0.009 | 112-VH47 (VHH, Humanized anti-PD-L1 single domain antibody) VHH: EVQLVESGGGLVQPGGSLRLSCAASGFTFSSGTQFSDSKIDWYRQAPGKGLVWVAGIFSTGSTIYEDSVKGRFTISRDNAKNTGYLQMNSLRAEDTAVYYCRVIGRGILAWGQGTLVTVSS |  |
